The target of assay [1] is T1, Loop-KLK4 synthetic cyclized peptide (CGLHSLEADQEPGSCC) (human, bridge (positions not given here); also: cyclized, chemistry not given here).
T1 construct: The peptide was coupled to KLH for immunization and to BSA for the ELISA tests of sera; no carrier is stated there; also called Loop3-KLK4; KLK4-Loop3
T1 peptide: CGLHSLEADQEPGSCC
The assay is described as follows: ELISA, plate coated with Loop-KLK4 peptide; target: Loop3-KLK4 peptide. As to the method: (§1) ELISA binding assay: A ninety-six-well plate (Nunc) was coated with KLK4 and Loop-KLK4 at 10 µg/ml. After blocking with 2% BSA in PBS, the plate was incubated with the antibodies for 1 h at 37° C. Bound antibodies were detected by peroxidase-conjugated antibody goat anti-human (Jackson ImmunoResearch). EC₅₀ was calculated with GraphPad Prism from […] curve fitting analysis.
(§2) Interaction of KLK4 monoclonal antibody was tested by ELISA using KLK4 & KLK4-Loop3. As a control, anti-GST monoclonal antibody was used.

For another assay, the target named is T2, recombinant human KLK4 (human, UniProt Q9Y5K2 31-253).
T2 construct: also called Kallikrein-4; Full KLK4
T2 sequence (Q9Y5K2 31-253 H197Q limits assumed): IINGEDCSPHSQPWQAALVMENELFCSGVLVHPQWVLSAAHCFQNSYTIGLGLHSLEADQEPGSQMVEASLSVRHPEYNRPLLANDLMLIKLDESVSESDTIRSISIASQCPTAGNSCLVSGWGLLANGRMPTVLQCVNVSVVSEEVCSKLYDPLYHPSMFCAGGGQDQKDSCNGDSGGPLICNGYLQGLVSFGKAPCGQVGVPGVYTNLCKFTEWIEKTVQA
Description: ELISA, plate coated with KLK4; target: full KLK4. As to the method: as §1, §2
For orientation: An ELISA detects its analyte on a solid surface through an enzyme-linked reagent.

Our source for the EC50 values is patent publication US20250206846A1 (YEDA RESEARCH AND DEVELOPMENT, published 2025).

Where no end group is shown, it is not given here.

B1: anti-KLK4 monoclonal antibody (antibody, IgG1, V domains shown)
VH: EVQLVESGGGLVQPKGSLKLSCAASGFTFKTYAMTWVRQTPGKGLEWVARIRNKNNNYATFYADSVKDRFTISRDDSQSMLYLLMNNLKTEDTAIYYCVRVNYWYFDVWGAGTTVTVSS
VL: EIVMTQSTAIMSASPGEKVTMTCRASSSVSSTYLHWYQQKSGASPKLWIYSTSNLASGVPARFSGSGSGTSYSLTVSSVEAEDAATYYCQQYSSYPLTFGGGTKLEIK
notes: Monoclonal antibody from a hybridoma of immunized balb-c mice; also called anti-KLK4 antibody
Turning to B1, the EC50 (commonly the concentration giving half of the maximal effect) in assay [1] is 271 pM; with recombinant human KLK4, 272 pM.
